Consider three proteins from PMC4303305 (Biochemistry, 2014).

Like-named read-outs stand apart in the source and are kept apart here.

Series [1] concerns the molecule itself. Kind of series: SEC. In general terms: SEC sorts molecules by how far they enter the pores of the column.
Series [2] deals with the molecule itself. Kind of series: SEC. This is another data set of the same source.

B1: NP4(K38Q/R39Q/K125Q) (natural protein, Rhodnius prolixus, UniProt Q94734 22-205, looked up)
chain: ACTKNAIAQTGFNKDKYFNGDVWYVTDYLDLEPDDVPQQYCAALAAGTASGKLKEALYHYDPKTQDTFYDVSELQVESLGKYTANFKKVDKNGNVKVAVTAGNYYTFTVMYADDSSALIHTCLHQGNKDLGDLYAVLNRNKDAAAGDKVKSAVSAATLEFSKFISTKENNCAYDNDSLKSLLTK
By stoichiometry N is commonly meant the number of molecules, sites or subunits per partner or assembly. As to B1, the “stoichiometry N” value in “SEC [1]” was 2.

B2: NP1(K1A) (natural protein, Rhodnius prolixus, UniProt Q26239 24-207, looked up)
chain: ACTKNALAQTGFNKDKYFNGDVWYVTDYLDLEPDDVPKRYCAALAAGTASGKLKEALYHYDPKTQDTFYDVSELQEESPGKYTANFKKVEKNGNVKVDVTSGNYYTFTVMYADDSSALIHTCLHKGNKDLGDLYAVLNRNKDTNAGDKVKGAVTAASLKFSDFISTKDNKCEYDNVSLKSLLTK
Consider B2, for which the “stoichiometry N” value in the series “SEC [2]” was 2.

B3: native N-terminal NP1 with C-terminal His6 tag (natural protein, Rhodnius prolixus, UniProt Q26239 24-207, looked up)
chain: KCTKNALAQTGFNKDKYFNGDVWYVTDYLDLEPDDVPKRYCAALAAGTASGKLKEALYHYDPKTQDTFYDVSELQEESPGKYTANFKKVEKNGNVKVDVTSGNYYTFTVMYADDSSALIHTCLHKGNKDLGDLYAVLNRNKDTNAGDKVKGAVTAASLKFSDFISTKDNKCEYDNVSLKSLLTK
On to B3, for which, in the series “SEC [2]”, the “stoichiometry N” value is 2.
